# Reference: the Human Domainome abundance scans (Beltran et al. 2025)
# ± gives the uncertainty stated by the source.
# B1: Ankyrin-3, residues 4094 to 4171; numbered along this chain, Q12955 (parent)
# chain: MAIVADHLGLSWTELARELNFSVDEINQIRVENPNSLISQSFMLLKKWVTRDGKNATTDALTSVLTKINRIDIVTLLE
# Variants of: B1
# Assay: abundance fitness (aPCA) (normalised: wild type 0, dead -1); higher = more abundant; growth selection in yeast, the domain comes from the species named
# Conditions: Homo sapiens
row,Variant,abundance fitness
1,K67A,-0.135 ± 0.078
2,K67C,-0.436 ± 0.25
3,K67L,-0.641 ± 0.2
4,K67G,-0.525 ± 0.1
5,K67H,-0.247 ± 0.16
6,K67V,-0.276 ± 0.051
7,K67Q,-0.056 ± 0.12
8,K67R,-0.091 ± 0.1
9,K67T,-0.228 ± 0.18
10,K67P,-0.646 ± 0.2
11,K67W,-0.667 ± 0.37
12,K67N,-0.48 ± 0.25
13,K67S,-0.285 ± 0.072
14,D72P,-0.396 ± 0.12
15,D72V,-0.644 ± 0.11
16,D72G,-0.878 ± 0.14
17,D72S,-0.855 ± 0.16
18,D72R,-0.784 ± 0.11
19,D72A,-0.739 ± 0.14
20,D72Q,-0.702 ± 0.3
21,D72L,-0.718 ± 0.11
22,D72C,-0.958 ± 0.38
23,D72M,-0.738 ± 0.33
24,D72W,-0.894 ± 0.32

row,Variant,abundance fitness
1,D72E,-0.567 ± 0.17
2,I71D,0.307 ± 0.22
3,I71R,-0.036 ± 0.045
4,I71G,0.085 ± 0.049
5,I71S,-0.048 ± 0.076
6,I71V,0.015 ± 0.055
7,I71K,0.057 ± 0.13
8,I71Q,0.136 ± 0.14
9,I71P,-0.046 ± 0.063
10,I71M,0.039 ± 0.062
11,I71H,-0.198 ± 0.12
12,I71A,-0.075 ± 0.071
13,I71C,-0.167 ± 0.15
14,I71T,-0.016 ± 0.13
15,I71F,0.066 ± 0.12
16,I71N,-0.155 ± 0.22
17,I71Y,0.082 ± 0.19
18,I71E,-0.066 ± 0.095
19,I71L,0.081 ± 0.053
20,I71W,-0.029 ± 0.077
21,T66V,0.018 ± 0.045
22,T66W,-0.173 ± 0.053
23,I68Q,-0.806 ± 0.24
24,I68E,-0.964 ± 0.34

row,Variant,abundance fitness
1,I68S,-0.935 ± 0.21
2,I68M,-0.244 ± 0.097
3,I68W,-0.878 ± 0.28
4,I68A,-0.868 ± 0.13
5,I68T,-0.987 ± 0.31
6,I68R,-0.965 ± 0.12
7,I68P,-0.37 ± 0.12
8,I68F,-0.963 ± 0.34
9,I68K,-0.606 ± 0.25
10,I68L,-0.219 ± 0.057
11,I68V,-0.284 ± 0.065
12,I68C,-0.402 ± 0.17
13,I68G,-0.916 ± 0.15
14,T75V,-0.112 ± 0.088
15,T75F,-0.236 ± 0.22
16,T75M,-0.026 ± 0.1
17,T75R,-0.002 ± 0.048
18,T75C,-0.081 ± 0.071
19,T75N,0.06 ± 0.1
20,T75Q,0.026 ± 0.083
21,T75L,0.006 ± 0.056
22,T75E,0.079 ± 0.1
23,T75D,-0.155 ± 0.13
24,T75H,-0.219 ± 0.15

row,Variant,abundance fitness
1,T75W,-0.189 ± 0.072
2,T75S,-0.004 ± 0.056
3,T75I,-0.182 ± 0.11
4,V74T,-0.142 ± 0.099
5,V74E,-0.888 ± 0.16
6,V74G,-0.651 ± 0.11
7,V74L,-0.399 ± 0.074
8,V74K,-0.255 ± 0.18
9,V74Y,-0.55 ± 0.35
10,V74R,-0.827 ± 0.12
11,V74M,-0.749 ± 0.41
12,V74P,-0.86 ± 0.26
13,V74N,-0.777 ± 0.33
14,V74S,-0.656 ± 0.12
15,V74F,-1.08 ± 0.37
16,V74D,-0.944 ± 0.38
17,L76S,-0.175 ± 0.06
18,L76C,-0.045 ± 0.096
19,L76Y,-0.546 ± 0.33
20,L76N,-0.292 ± 0.31
21,L76M,0.067 ± 0.23
22,L76H,-0.064 ± 0.12
23,L76V,0.026 ± 0.058
24,L76R,0.045 ± 0.039

row,Variant,abundance fitness
1,L76E,-0.185 ± 0.098
2,L76A,0.08 ± 0.077
3,L76D,-0.351 ± 0.32
4,L76I,0.434 ± 0.46
5,L76F,-0.231 ± 0.21
6,L76G,-0.457 ± 0.066
7,L76W,-0.489 ± 0.12
8,L76T,-0.197 ± 0.083
9,L76P,-0.438 ± 0.079
10,L76Q,0.028 ± 0.085
11,R70C,-0.817 ± 0.2
12,R70L,-0.82 ± 0.13
13,R70Q,-0.908 ± 0.23
14,R70W,-0.795 ± 0.11
15,R70P,-0.74 ± 0.29
16,R70G,-1 ± 0.14
17,R70V,-0.876 ± 0.2
18,R70M,-0.774 ± 0.33
19,R70D,-0.753 ± 0.25
20,R70K,-0.393 ± 0.24
21,R70A,-0.918 ± 0.19
22,I73M,-0.503 ± 0.14
23,I73W,-0.793 ± 0.15
24,I73H,-0.715 ± 0.24

row,Variant,abundance fitness
1,I73G,-0.977 ± 0.15
2,I73V,-0.276 ± 0.089
3,I73S,-0.849 ± 0.25
4,I73E,-0.989 ± 0.31
5,I73P,-0.858 ± 0.17
6,I73L,-0.148 ± 0.05
7,I73Y,-0.938 ± 0.39
8,I73A,-0.631 ± 0.16
9,I73N,-0.597 ± 0.39
10,I73C,-0.695 ± 0.16
11,N69R,-0.224 ± 0.067
12,N69W,-1.01 ± 0.44
13,N69M,-0.61 ± 0.23
14,N69K,-0.104 ± 0.14
15,N69Y,-0.699 ± 0.12
16,N69D,-0.178 ± 0.12
17,N69C,-0.549 ± 0.23
18,N69L,-0.679 ± 0.1
19,N69A,-0.339 ± 0.074
20,N69V,-0.928 ± 0.14
21,N69S,-0.29 ± 0.057
22,N69P,-0.811 ± 0.16
23,N69G,0.073 ± 0.047
24,N69H,-0.308 ± 0.18

row,Variant,abundance fitness
1,N69E,-0.032 ± 0.12
2,N69Q,-0.061 ± 0.12
3,E78H,-0.026 ± 0.085
4,E78T,-0.063 ± 0.032
5,E78Q,-0.397 ± 0.2
6,E78K,-0.025 ± 0.085
7,E78G,0.077 ± 0.13
8,E78F,-0.13 ± 0.1
9,E78N,-0.014 ± 0.09
10,E78W,-0.649 ± 0.36
11,E78V,-0.206 ± 0.075
12,E78I,-0.219 ± 0.041
13,E78M,-0.211 ± 0.11
14,E78Y,-0.159 ± 0.14
15,E78C,-0.275 ± 0.17
16,E78S,-0.089 ± 0.065
17,E78D,-0.001 ± 0.072
18,E78L,-0.326 ± 0.088
19,L77V,-0.139 ± 0.048
20,L77T,-0.434 ± 0.097
21,L77S,-0.526 ± 0.088
22,L77K,-0.602 ± 0.22
23,L77C,-0.164 ± 0.12
